Results published in patent publication US20030108554A1 (published 2003).

T1: Goodpasture antigen binding protein (GPBP) (UniProt Q9Y5P4 1-624)
T1 construct: Protein kinase; Fusion parts are not written as pieces
T1 sequence (looked up): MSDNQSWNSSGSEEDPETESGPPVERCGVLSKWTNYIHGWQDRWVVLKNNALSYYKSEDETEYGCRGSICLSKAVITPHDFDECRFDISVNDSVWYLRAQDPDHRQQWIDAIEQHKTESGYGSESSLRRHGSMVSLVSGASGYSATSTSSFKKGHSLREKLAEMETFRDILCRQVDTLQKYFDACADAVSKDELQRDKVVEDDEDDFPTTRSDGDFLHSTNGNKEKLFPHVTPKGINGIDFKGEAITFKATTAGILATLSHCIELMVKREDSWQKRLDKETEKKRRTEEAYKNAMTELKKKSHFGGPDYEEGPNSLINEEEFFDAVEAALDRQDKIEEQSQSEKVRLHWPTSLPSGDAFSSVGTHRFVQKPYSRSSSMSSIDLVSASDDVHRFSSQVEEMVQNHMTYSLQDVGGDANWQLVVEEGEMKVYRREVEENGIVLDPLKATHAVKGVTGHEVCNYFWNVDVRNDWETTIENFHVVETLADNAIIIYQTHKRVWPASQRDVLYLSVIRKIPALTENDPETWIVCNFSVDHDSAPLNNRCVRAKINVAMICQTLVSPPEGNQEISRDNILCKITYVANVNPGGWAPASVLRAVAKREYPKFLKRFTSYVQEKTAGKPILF

T2: pol κ (UniProt Q9UBT6 1-870)
T2 construct: Tested in yeast two-hybrid (GAL4 domain fusion); also called primary protein product of the POLK
T2 sequence (looked up): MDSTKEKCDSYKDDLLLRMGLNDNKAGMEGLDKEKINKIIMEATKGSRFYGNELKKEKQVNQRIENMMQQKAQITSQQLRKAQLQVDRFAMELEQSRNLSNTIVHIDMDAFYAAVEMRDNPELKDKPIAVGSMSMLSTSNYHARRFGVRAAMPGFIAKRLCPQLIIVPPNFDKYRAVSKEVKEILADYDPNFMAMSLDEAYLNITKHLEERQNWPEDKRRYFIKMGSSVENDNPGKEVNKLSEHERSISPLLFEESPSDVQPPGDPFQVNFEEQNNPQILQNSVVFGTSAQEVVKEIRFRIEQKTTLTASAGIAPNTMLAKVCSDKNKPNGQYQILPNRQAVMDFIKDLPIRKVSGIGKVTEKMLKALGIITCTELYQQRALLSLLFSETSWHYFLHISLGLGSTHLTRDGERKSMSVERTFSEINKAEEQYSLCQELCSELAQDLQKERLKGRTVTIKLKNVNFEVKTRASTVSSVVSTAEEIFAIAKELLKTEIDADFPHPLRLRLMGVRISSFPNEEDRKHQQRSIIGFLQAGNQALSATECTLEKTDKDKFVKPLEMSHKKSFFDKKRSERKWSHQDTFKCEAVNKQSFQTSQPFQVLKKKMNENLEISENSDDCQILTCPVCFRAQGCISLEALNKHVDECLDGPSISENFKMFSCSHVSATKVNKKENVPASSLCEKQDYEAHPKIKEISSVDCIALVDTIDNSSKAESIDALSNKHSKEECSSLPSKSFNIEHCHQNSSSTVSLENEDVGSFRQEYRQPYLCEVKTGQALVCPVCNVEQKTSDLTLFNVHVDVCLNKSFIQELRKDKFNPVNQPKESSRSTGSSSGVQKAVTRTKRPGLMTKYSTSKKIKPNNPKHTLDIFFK


What was measured:
[1] = molecular target: T1, Goodpasture antigen binding protein …; test: yeast two-hybrid
[2] = molecular target: T1, Goodpasture antigen binding protein …; test: yeast two-hybrid, β-galactosidase colony lift
Experimental: Deletion mutants were obtained using specific primers and PCR, followed by cloning of the resulting cDNAs in the pGBT9 and pGAD424 vectors. The assays were performed in SFY526 or HF7c Saccharomyces cerevisiae strains, with pGBT9 as GAL4 binding domain vector and pGAD424 as GAL4 activation domain vector, by the lift colony assay procedure. Briefly, the yeast cells were co-transformed with constructs of both binding domain and activation domain vectors, and the co-transformants were selected in medium deficient in both tryptophan and leucine. After five days of incubation at 30° C. the colonies were tested for the expression of β-galactosidase with X-Gal substrate (0.75 mg/ml). […] When the assays were performed with the HF7c strain, the interactions were assessed by the lift colony assay procedure and by growth in medium deficient in histidine, tryptophan and leucine. For yeast three-hybrid system, we used the pBRIDGE vector, which allows the conditional expression of a third protein apart from the usual GAL4 binding and activation domain-fusion proteins of the two-hybrid system. In this case, the expression of GPBP or I-20 or GIP90 was driven by Met25 promoter, active in absence of methionine. In these experiments, the transformed SFY526 cells were plated in medium deficient in tryptophan, leucine and methionine, and subjected to the colony lift assay after five days at 30° C. […]

[3] = molecular target: the molecule itself; test: yeast two-hybrid with I-20 deletion mutants
Experimental: The production of additional I-20 deletion mutants and their use in specific two hybrid studies permitted the identification of two specific regions of I-20 that are essential for GPBP interaction as well as the identification of other residues directly involved but not essential for the interaction (FIG. 4).
Deletion mutants were obtained using specific primers and PCR, followed by cloning of the resulting cDNAs in the pGBT9 and pGAD424 vectors. The assays were performed in SFY526 or HF7c Saccharomyces cerevisiae strains, with pGBT9 as GAL4 binding domain vector and pGAD424 as GAL4 activation domain vector, by the lift colony assay procedure. Briefly, the yeast cells were co-transformed with constructs of both binding domain and activation domain vectors, and the co-transformants were selected in medium deficient in both tryptophan and leucine. After five days of incubation at 30° C. the colonies were tested for the expression of β-galactosidase with X-Gal substrate (0.75 mg/ml). […] When the assays were performed with the HF7c strain, the interactions were assessed by the lift colony assay procedure and by growth in medium deficient in histidine, tryptophan and leucine.

[4] = molecular target: T2, pol κ; test: yeast two-hybrid

Row | binding result [1] | binding result [2] | binding result [4] | Binder | binding result [3]
1 | no binding | – | – | GIP90 with deletion of the N terminal 240-residues (other, Deletion mutant in yeast two-hybrid (GAL4 domain fusion)) MVVDEQQRLTAQLTLQRQKIQELTTNAKETHTKLALAEARVQEEEQKATRLEKELQTQTTKFHQDQDTIMAKLTNEDSQNRQLQQKLAALSRQIDELEETNRSLRKAEEELQDIKEKISKGEYGNAGIMAEVEELRKRVLDMEGKDEELIKMEEQCRDLNKRLERETLQSKDFKLEVEKLSKRIMALEKLEDAFNKSKQECYSLKCNLEKERMTTKQLSQELESLKVRIKELEAIESRLEKTEFTLKEDLTKLKTLTVMFVDERKTMSEKLKKTEDKLQAASSQLQVEQNKVTTVTEKLIEETKRALKSKTDVEEKMYSVTKERDDLKNKLKAEEEKGNDLLSRVNMLKNRLQSLEAIEKDFLKNKLNQDSGKSTTALHQENNKIKELSQEVERLKLKLKDMKAIEDDLMKTEDEYETLERRYANERDKAQFLSKELEHVKMELAKYKLAEKTETSHEQWLFKRLQEEEAKSGHLSREVDALKEKIHEYMATEDLICHLQGDHSVLQKKTKSTRKQEQRFRKRD | –
2 | – | binds | no binding | I-20 (other, Tested as GAL4 domain fusion in yeast two-hybrid and three-hybrid; fusion parts are not written as pieces; also called 265 residue polypeptide I-20) RDEVIGILKAEKMDLALLEAQYGFVTPKKVLEALQRDAFQAKSTPWQEDIYEKPMNELDKVVEKHKESYRRILGQLLVAEKSRRQTILELEEEKRKHKEYMEKSDEFICLLEQECERLKKLIDQEIKSQEEKEQEKEKRVTTLKEELTKLKSFALMVVDEQQRLTAQLTLQRQKIQELTTNAKETHTKLALAEARVQEEEQKATRLEKELQTQTTKFHQDQDTIMAKLTNEDSQNRQLQQKLAALSRQIDELEETNRSLRKAEEE | binds
